B1: Circadian clock oscillator protein KaiA (Synechococcus elongatus (strain PCC 7942)), Q79PF6 (parent)
chain: MLSQIAICIWVESTAILQDCQRALSADRYQLQVCESGEMLLEYAQTHRDQIDCLILVAANPSFRAVVQQLCFEGVVVPAIVVGDRDSEDPDEPAKEQLYHSAELHLGIHQLEQLPYQVDAALAEFLRLAPVETMADHIMLMGANHDPELSSQQRDLAQRLQERLGYLGVYYKRDPDRFLRNLPAYESQKLHQAMQTSYREIVLSYFSPNSNLNQSIDNFVNMAFFADVPVTKVVEIHMELMDEFAKKLRVEGRSEDILLDYRLTLIDVIAHLCEMYRRSIPRET
partner: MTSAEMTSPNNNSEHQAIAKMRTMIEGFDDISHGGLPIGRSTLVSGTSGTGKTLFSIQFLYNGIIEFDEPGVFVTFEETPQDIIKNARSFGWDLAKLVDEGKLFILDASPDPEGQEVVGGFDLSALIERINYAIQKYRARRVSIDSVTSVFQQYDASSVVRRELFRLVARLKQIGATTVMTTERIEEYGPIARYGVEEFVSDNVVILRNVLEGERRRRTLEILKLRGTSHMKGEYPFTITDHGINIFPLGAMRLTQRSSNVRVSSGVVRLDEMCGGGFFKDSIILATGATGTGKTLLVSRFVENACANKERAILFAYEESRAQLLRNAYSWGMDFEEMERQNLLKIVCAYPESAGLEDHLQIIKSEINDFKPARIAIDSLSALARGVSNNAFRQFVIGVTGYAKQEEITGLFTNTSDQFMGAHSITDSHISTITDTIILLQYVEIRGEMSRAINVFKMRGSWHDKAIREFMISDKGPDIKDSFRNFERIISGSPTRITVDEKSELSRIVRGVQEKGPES
B2: Circadian clock oscillator protein KaiC (Synechococcus elongatus (strain PCC 7942)), Q79PF4 (parent)
chain: B1 partner
partner: B1 chain

Variants of: B1
Details: with kaic_syne7 kaiC, Q79PF4

| Variant | effect of a mutation on the interaction |
| --- | --- |
| MLSQIAICIWVESTAILQDCQRALSADRYQLQVCESGEMLLEYAQTHRDQIDCLILVAANPSFRAVVQQLCFEGVVVPAIVVGDRDSEDPDEPAKEQLYHSAELHLGIHQLEQLPYQVDAALAEFLRLAPVETMADHIMLMGANHDPELSSQQRDLAQRLQERLGYLGVYYKRDPDRFLRNLPAYESQKLHQAMQTSYREIVLSYFSPNSNLNQSIDNFVNMAFFADVPVTKVVEIHMELMDEFAKKLHVEGRSEDILLDYRLTLIDVIAHLCEMYRRSIPRET [R249H] | decreasing interaction |

Variants of: B1
Details: with kaic_syne7 kaiC, Q79PF4
Remark: another data set of the same source

| Variant | effect of a mutation on the interaction |
| --- | --- |
| MLSQIAICIWVESTAILQDCQRALSADRYQLQVCESGEMLLEYAQTHRDQIDCLILVAANPSFRAVVQQLCFEGVVVPAIVVGDRDSEDPDEPAKEQLYHSAELHLGIHQLEQLPYQVDAALAEFLRLAPVETMADHIMLMGANHDPELSSQQRDLAQRLQERLGCLGVYYKRDPDRFLRNLPAYESQKLHQAMQTSYREIVLSYFSPNSNLNQSIDNFVNMAFFADVPVTKVVEIHMELMDEFAKKLRVEGRSEDILLDYRLTLIDVIAHLCEMYRRSIPRET [Y166C] | decreasing interaction |

Variants of: B2
Details: with kaia_syne7 kaiA, Q79PF6

| Variant | effect of a mutation on the interaction |
| --- | --- |
| MTSAEMTSPNNNSEHQAIAKMRTMIEGFDDISHGGLPIGRSTLVSGTSGTGKTLFSIQFLYNGIIEFDEPGVFVTFEETPQDIIKNARSFGWDLAKLVDEGKLFILDASPDPEGQEVVGGFDLSALIERINYAIQKYRARRVSIDSVTSVFQQYDASSVVRRELFRLVARLKQIGATTVMTTERIEEYGPIARYGVEEFVSDNVVILRNVLEGECRRRTLEILKLRGTSHMKGEYPFTITDHGINIFPLGAMRLTQRSSNVRVSSGVVRLDEMCGGGFFKDSIILATGATGTGKTLLVSRFVENACANKERAILFAYEESRAQLLRNAYSWGMDFEEMERQNLLKIVCAYPESAGLEDHLQIIKSEINDFKPARIAIDSLSALARGVSNNAFRQFVIGVTGYAKQEEITGLFTNTSDQFMGAHSITDSHISTITDTIILLQYVEIRGEMSRAINVFKMRGSWHDKAIREFMISDKGPDIKDSFRNFERIISGSPTRITVDEKSELSRIVRGVQEKGPES [R215C] | decreasing interaction |
| MTSAEMTSPNNNSEHQAIAKMRTMIEGFDDISHGGLPIGRSTLVSGTSGTGKTLFSIQFLYNGIIEFDEPGVFVTFEETPQDIIKNARSFGWDLAKLVDEGKLFILDASPDPEGQEVVGGFDLSALIERINYAIQKYRARRVSIDSVTSVFQQYDASSVVRRELFRLVARLKQIGATTVMTTERIEEYGPIARYGVEEFVSDNVVILRNVLEGERRRRTLEILKLRGTSHMKGEYPFTITDHGINIFKLGAMRLTQRSSNVRVSSGVVRLDEMCGGGFFKDSIILATGATGTGKTLLVSRFVENACANKERAILFAYEESRAQLLRNAYSWGMDFEEMERQNLLKIVCAYPESAGLEDHLQIIKSEINDFKPARIAIDSLSALARGVSNNAFRQFVIGVTGYAKQEEITGLFTNTSDQFMGAHSITDSHISTITDTIILLQYVEIRGEMSRAINVFKMRGSWHDKAIREFMISDKGPDIKDSFRNFERIISGSPTRITVDEKSELSRIVRGVQEKGPES [P248K] | decreasing interaction |

Variants of: B2
Details: with kaia_syne7 kaiA, Q79PF6
Remark: another data set of the same source

| Variant | effect of a mutation on the interaction |
| --- | --- |
| MTSAEMTSPNNNSEHQAIAKMRTMIEGFDDISHGGLPIGRSTLVSGTSGTGKTLFSIQFLYNGIIEFDEPGVFVTFEETPQDIIKNARSFGWDLAKLVDEGKLFILDASPDPEGQEVVGGFDLSALIERINYAIQKYRARRVSIDSVTSVFQQYDASSVVRRELFRLVARLKQIGATTVMTTERIEEYGPIARYGVEEFVSDNVVILRNVLEGERRRRTLEILKLRGTSHMKGEYPFTITDHGINIFPLGAMRLTQRSSNVRVSSGVVRLDEMCGGGFFKDSIILATGATGTGKTLLVSRFVENACANKERAILFAYEESRAQLLRNAYSWGMDFEEMERQNLLKIVCAYPESAGLEDHLQIIKSEINDFKPARIAIDSLSALARGVSNNAFRQFVIGVTGYAKQEEITGLFTNTSDQFMGAHSITDSHISTITDTIILLQYVEIRGEMSRAINVFKMRGSWHDKAIREFMISDKGPDIKDSFRNFERIISGSPARITVDEKSELSRIVRGVQEKGPES [T495A] | decreasing interaction |

Source: IntAct's records for PubMed 11356188
